Measurements reported in patent US20250074943A1 (Amgen, published 2025).
Where “and” joins values, the source holds several entries; their conditions need not be identical. Equal entries are not always repeated. Bridge positions count the residues as written; N and C are the ends. Ends that are not written are not given here.

T1: recombinant DLL3 ectodomain (rhDLL3-Fc) (human, UniProt Q9NYJ7 27-492, biotinylated (NHS-LC-LC-biotin) in the BLI and SPR assays)
T1 construct: also called rDLL3-Fc; recombinant human DLL3 (rDLL3); not shown: Fc part
T1 sequence: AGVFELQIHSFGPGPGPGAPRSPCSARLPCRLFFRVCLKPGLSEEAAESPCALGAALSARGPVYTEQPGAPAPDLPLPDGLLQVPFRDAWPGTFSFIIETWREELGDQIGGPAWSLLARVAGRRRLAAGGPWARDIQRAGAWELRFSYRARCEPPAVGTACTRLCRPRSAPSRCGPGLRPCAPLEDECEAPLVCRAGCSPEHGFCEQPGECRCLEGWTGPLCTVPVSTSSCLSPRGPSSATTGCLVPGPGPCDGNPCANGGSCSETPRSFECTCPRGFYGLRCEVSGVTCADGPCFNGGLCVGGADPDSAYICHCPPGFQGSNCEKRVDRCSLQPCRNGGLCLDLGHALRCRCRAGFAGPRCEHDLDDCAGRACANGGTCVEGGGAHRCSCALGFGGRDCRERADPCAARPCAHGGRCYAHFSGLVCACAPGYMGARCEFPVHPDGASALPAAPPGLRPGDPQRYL

T2: human DLL3 expressed on the surface of cells (human, UniProt Q9NYJ7 27-618)
T2 construct: Stably transfected CHO or HEK293 cells; also called huDLL3; hDLL3
T2 sequence: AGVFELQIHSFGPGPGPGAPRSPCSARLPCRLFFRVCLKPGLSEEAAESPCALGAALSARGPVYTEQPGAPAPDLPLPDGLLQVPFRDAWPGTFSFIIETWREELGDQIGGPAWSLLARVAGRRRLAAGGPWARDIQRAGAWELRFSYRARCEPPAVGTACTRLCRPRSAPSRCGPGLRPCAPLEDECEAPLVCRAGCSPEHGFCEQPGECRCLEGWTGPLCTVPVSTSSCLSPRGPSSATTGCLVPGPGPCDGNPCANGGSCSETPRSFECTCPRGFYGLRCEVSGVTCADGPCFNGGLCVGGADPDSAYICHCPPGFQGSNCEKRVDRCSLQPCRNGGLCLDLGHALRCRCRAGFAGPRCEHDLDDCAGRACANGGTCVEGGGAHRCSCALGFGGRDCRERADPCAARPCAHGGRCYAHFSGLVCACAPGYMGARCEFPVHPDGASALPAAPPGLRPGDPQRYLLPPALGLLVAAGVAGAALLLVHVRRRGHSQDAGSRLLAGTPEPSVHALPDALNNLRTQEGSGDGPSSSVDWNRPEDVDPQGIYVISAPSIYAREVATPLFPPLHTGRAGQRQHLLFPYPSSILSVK


The binders below were run against T1, recombinant DLL3 ectodomain (rhDLL3-Fc) (assay: phage ELISA on rDLL3-Fc).
Experimental: The pools of phages obtained after each round of selection were tested by Phage-ELISA for their binding to rDLL3-Fc and counter-screened on hIgG-Fc. Briefly, proteins were immobilized on NUNC-Maxisorp ELISA plates. Then the plates were washed and blocked. 100 μl of pre-blocked phages were added to the blocked plate and incubated for 1 hr at room temperature. Anti-M13 HRP conjugated mAb were added and the plates were read on a Multiskan Ascent (Thermo) Elisa reader at A370 nm after the addition of TMB (Sigma).

Row | binding result | Binder
1 | binds | AETVEFDGCKGDWYEWTCWW (not shown: M13 pIII coat protein) [SEQ ID NO 53]
2 | binds | AETVEYWRCDWYEETVACGT (not shown: M13 pIII coat protein) [SEQ ID NO 47]
3 | binds | AETVEFRGCTGNVYDWTCVW (not shown: M13 pIII coat protein) [SEQ ID NO 51]
4 | binds | AETVEFWTCHGNADEWTCSW (not shown: M13 pIII coat protein) [SEQ ID NO 52]
5 | binds | AETVEFYGCSMDWRGVTCAW (not shown: M13 pIII coat protein) [SEQ ID NO 49]
6 | binds | AETVEFYGCYGDRNDYTCTW (not shown: M13 pIII coat protein) [SEQ ID NO 42]
7 | binds | AETVEFWDCWGNTDDWTCTW (not shown: M13 pIII coat protein) [SEQ ID NO 41]

The next lines start with the binder.

Row | Binder | binding result
8 | AETVEFYGCRGGDGEWTCVW (not shown: M13 pIII coat protein) [SEQ ID NO 54] | binds
9 | AETVEFWSCHYSYWTVSCGT (not shown: M13 pIII coat protein) [SEQ ID NO 48] | binds
10 | AETVEFYGCETYSGGWTCLW (not shown: M13 pIII coat protein) [SEQ ID NO 56] | binds
11 | AETVEFDYCYGDVEEWTCVY (not shown: M13 pIII coat protein) [SEQ ID NO 55] | binds
12 | AETVEFLGCHGDNSEWTCVW (not shown: M13 pIII coat protein) [SEQ ID NO 43] | binds
13 | AETVEFYGCKWDWKGWTCAW (not shown: M13 pIII coat protein) [SEQ ID NO 57] | binds
14 | AETVEFWTCYWTEGVSGCRW (not shown: M13 pIII coat protein) [SEQ ID NO 46] | binds
15 | AETVEFYGCTGDAYEYTCTW (not shown: M13 pIII coat protein) [SEQ ID NO 45] | binds
16 | AETVEFWSCKWWGGAADEYTYSCGW (not shown: M13 pIII coat protein) [SEQ ID NO 44] | binds

Each binder was assayed against T2, human DLL3 expressed on the surface of … (assay: phage cell ELISA/FACS on DLL3-expressing cells;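 also: phages incubated 1 h at room temperature with cells overexpressing human DLL3, read by flow cytometry fluorescence, then fixed-cell ELISA with anti-M13-HRP at A370 nm, parental cells alongside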).
Experimental: The pools of phages were also screened for their binding to cells overexpressing human DLL3 on their surface. Cells were detached, counted and re-suspended at 1.8×10⁶ cell/ml in FACS buffer containing 2% FBS. Pre-blocked phages were then added to the cells and incubated for 1 hr at room temperature. […] Cells were then washed and re-suspended into FACS buffer. Fluorescence was acquired using a flow cytometer (FACS Canto/Becton Dickinson).
Phage clones with signal higher than four-fold above the background were further tested for their binding to DLL3 on the surface of cells expressing DLL3 by cell ELISA. Briefly, parental cells and cells overexpressing DLL3 were plated on 96 well plate the day before the assay. The cells were then fixed and washed before the addition of pre-blocked phages as previously described. The cells were then washed and anti-M13-HRP was added. The signal was measured using a Multiskan Ascent (Thermo) ELISA reader at A370 nm.

Row | binding result | Binder
17 | binds | AETVEFDGCKGDWYEWTCWW (not shown: M13 pIII coat protein) [SEQ ID NO 53]
18 | binds | AETVEYWRCDWYEETVACGT (not shown: M13 pIII coat protein) [SEQ ID NO 47]
19 | binds | AETVEFRGCTGNVYDWTCVW (not shown: M13 pIII coat protein) [SEQ ID NO 51]
20 | binds | AETVEFWTCHGNADEWTCSW (not shown: M13 pIII coat protein) [SEQ ID NO 52]
21 | binds | AETVEFYGCSMDWRGVTCAW (not shown: M13 pIII coat protein) [SEQ ID NO 49]
22 | binds | AETVEFYGCYGDRNDYTCTW (not shown: M13 pIII coat protein) [SEQ ID NO 42]
23 | binds | AETVEFWDCWGNTDDWTCTW (not shown: M13 pIII coat protein) [SEQ ID NO 41]

Second part, the binder before the results:

Row | Binder | binding result
24 | AETVEFYGCRGGDGEWTCVW (not shown: M13 pIII coat protein) [SEQ ID NO 54] | binds
25 | AETVEFWSCHYSYWTVSCGT (not shown: M13 pIII coat protein) [SEQ ID NO 48] | binds
26 | AETVEFYGCETYSGGWTCLW (not shown: M13 pIII coat protein) [SEQ ID NO 56] | binds
27 | AETVEFDYCYGDVEEWTCVY (not shown: M13 pIII coat protein) [SEQ ID NO 55] | binds
28 | AETVEFLGCHGDNSEWTCVW (not shown: M13 pIII coat protein) [SEQ ID NO 43] | binds
29 | AETVEFYGCKWDWKGWTCAW (not shown: M13 pIII coat protein) [SEQ ID NO 57] | binds
30 | AETVEFWTCYWTEGVSGCRW (not shown: M13 pIII coat protein) [SEQ ID NO 46] | binds
31 | AETVEFYGCTGDAYEYTCTW (not shown: M13 pIII coat protein) [SEQ ID NO 45] | binds
32 | AETVEFWSCKWWGGAADEYTYSCGW (not shown: M13 pIII coat protein) [SEQ ID NO 44] | binds

The binders below were run against T1, recombinant DLL3 ectodomain (rhDLL3-Fc) (assay: BLI (Octet), biotinylated rhDLL3-Fc on streptavidin sensors).
Experimental: Binding kinetic assays were performed using Bio-layer interferometry (BLI) technology. The recombinant DLL3 ectodomain (rhDLL3-Fc) was biotinylated using EZ-Link Sulfo-NHS-LC-LC-Biotin Kit according to the manufacturer's protocol (Pierce by Thermo Fisher Scientific). The recombinant protein was incubated with an excess of NHS-LC-LC Biotin ester, in a molar ratio of 1:3 (protein: biotin), at 25° C. for 90 min. The un-reacted biotin ester was removed by subsequent buffer exchange on 0.5 ml Zeba spin desalting columns 7K MWCO (Pierce by Thermo Fisher Scientific).

Row | Kd | RT (residence time) [s] | Binder
33 | 181 nM | 20 | WDCWGNTDDWTCTW-NH2 (disulfide 3-12 (inferred), PepSP1161 without AETVEF) [PepSP1269]
34 | 7500 nM | 1.36 | WGCTGTWGNETCWW-NH2 (disulfide 3-12 (inferred), PepSP1146 without AETVEF) [PepSP1213]
35 | 123 nM | 89 | AETVEFWSCHYSYWTVSCGT-NH2 (disulfide 9-18 (inferred)) [PepSP1157]
36 | 399 nM | 47 | AETVEFYGCETYSGGWTCLW-NH2 (disulfide 9-18 (inferred)) [PepSP1167]
37 | 59 nM | 65.6 | AETVEFYGCTGDAYEYTCTW-NH2 (disulfide 9-18 (inferred)) [PepSP1147]
38 | 155 nM | 177 | AETVEYWRCDWYEETVACGT-NH2 (disulfide 9-18 (inferred)) [PepSP1155]
39 | 207 nM | 67 | AETVEFYGCQYYGWDYTCAW-NH2 (disulfide 9-18 (inferred)) [PepSP1176]
40 | 236 nM | 52 | AETVEFYGCWGNYNDYTCSW-NH2 (disulfide 9-18 (inferred)) [PepSP1177]
41 | 125 nM | 167 | AETVEFWTCYWTEGVSGCRW-NH2 (disulfide 9-18 (inferred)) [PepSP1151]
42 | 568 nM | 44 | AETVEFYGCKWDWKGWTCAW-NH2 (disulfide 9-18 (inferred)) [PepSP1168]

Second part, the binder before the results:

Row | Binder | Kd | RT (residence time) [s]
43 | AETVEFDYCLWAPDAWGCQN-NH2 (disulfide 9-18) [PepSP1159] | 900 nM | 6
44 | AETVEFYGCSVNADGWTCSW-NH2 (disulfide 9-18 (inferred)) [PepSP1170] | 166 nM | 43
45 | AETVEFYGCRGGDGEWTCVW-NH2 (disulfide 9-18 (inferred)) [PepSP1165] | 263 nM | 66
46 | AETVEFWSCKWWGGAADEYTYSCGW-NH2 (disulfide 9-23 (inferred)) [PepSP1182] | 75.8 nM | 96.6
47 | AETVEFYGCSMDWRGVTCAW-NH2 (disulfide 9-18 (inferred)) [PepSP1158] | 643 nM | 31
48 | AETVEFRGCTGNVYDWTCVW-NH2 (disulfide 9-18 (inferred)) [PepSP1160] | 494 nM | 47
49 | AETVEFDGCKGDWYEWTCWW-NH2 (disulfide 9-18 (inferred)) [PepSP1164] | 125 nM | 125
50 | AETVEFLGCHGDNSEWTCVW-NH2 (disulfide 9-18 (inferred)) [PepSP1163] | 69 nM and 68.7 nM | 167
51 | AETVEFYGCYGDRNDYTCTW-NH2 (disulfide 9-18 (inferred)) [PepSP1178] | 147 nM | 75.9
52 | AETVEFDYCYGDVEEWTCVY-NH2 (disulfide 9-18 (inferred)) [PepSP1166] | 145 nM | 48
53 | AETVEFWTCHGNADEWTCSW-NH2 (disulfide 9-18 (inferred)) [PepSP1162] | 159 nM | 51
54 | AETVEFYGCYGEQEQWTCLW-NH2 (disulfide 9-18 (inferred)) [PepSP1173] | 106 nM | 101
